Experimental data published in US20100173800.

Target: MuA transposase (bacteriophage Mu) (UniProt P07636)
Assay: cell_activity
Conditions: HeLa electroporation; linear transposon about 100 cfu/ug; 5 bp target duplication in sequenced clones (Table 1)

Sequence of MuA transposase (bacteriophage Mu) (P07636 whole entry): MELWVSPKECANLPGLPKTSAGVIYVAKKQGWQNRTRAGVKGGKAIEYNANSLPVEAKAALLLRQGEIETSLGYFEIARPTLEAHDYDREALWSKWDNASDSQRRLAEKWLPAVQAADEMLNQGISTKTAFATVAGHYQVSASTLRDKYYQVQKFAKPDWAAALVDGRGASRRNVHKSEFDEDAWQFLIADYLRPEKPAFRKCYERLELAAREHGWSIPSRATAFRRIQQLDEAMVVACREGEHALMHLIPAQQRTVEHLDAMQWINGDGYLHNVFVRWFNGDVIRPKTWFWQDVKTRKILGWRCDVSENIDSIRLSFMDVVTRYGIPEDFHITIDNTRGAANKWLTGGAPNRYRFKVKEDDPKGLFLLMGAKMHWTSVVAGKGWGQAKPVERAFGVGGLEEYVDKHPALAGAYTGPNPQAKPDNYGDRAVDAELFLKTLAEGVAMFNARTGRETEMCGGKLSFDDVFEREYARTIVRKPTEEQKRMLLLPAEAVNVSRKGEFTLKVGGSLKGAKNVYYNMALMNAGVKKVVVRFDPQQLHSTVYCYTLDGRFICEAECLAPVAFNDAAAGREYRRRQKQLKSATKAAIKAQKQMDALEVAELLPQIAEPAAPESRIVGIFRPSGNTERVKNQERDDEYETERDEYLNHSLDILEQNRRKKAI

Kan/Neo-Mu transposon (Kan/Neo-LoxP-Mu 2135 bp or Kan/Neo-p15A-Mu 2795 bp)
activity: 2400 cfu/µg DNA
